Measured values taken from patent publication US20050059087A1 (Amgen, published 2005).

T1: Pep-3, NH2-LEEKKGNYVVTDHG-OH (human)
T1 construct: Free peptide used in Biacore and KinExA (MW 1590 Da)
T1 peptide: H-LEEKKGNYVVTDHG-OH


Tests used:
[1] = target: EGFrVIII antigen (ELISA antigen of Examples 15, 17 and 21; form not stated) (human, UniProt P00533 298-645, limits assumed); experiment: binding of variant antibody to EGFRvIII antigen
[2] = target: T1, Pep-3, NH2-LEEKKGNYVVTDHG-OH; experiment: Biacore 2000 SPR, steady-state (equilibrium) binding model, pep-3 analyte
Description: The first step in these examples involved the immobilization of 5,600 resonance units (RU) to 8,000 RU of each mAb tested to one flow cell (Fc) of a CM5 sensor chip using standard EDC/NHS coupling chemistry. […] Three CM5 sensor chips were used in total to immobilize all mutant mAbs with a unique mAb immobilized to each flow cell. […] Biacore 2000 optical biosensors were used for all studies.

binding result [1]	Kd [2]	Binder
no binding	–	mAb 131 variant, light chain V99F (antibody, V domains shown, also called V99 changed to F) VH: QVQLVESGGGVVQSGRSLRLSCAASGFTFRNYGMHWVRQAPGKGLEWVAVIWYDGSDKYYADSVRGRFTISRDNSKNTLYLQMNSLRAEDTAVYYCARDGYDILTGNPRDFDYWGQGTLVTVSS VL: DTVMTQTPLSSHVTLGQPASISCRSSQSLVHSDGNTYLSWLQQRPGQPPRLLIYRISRRFSGVPDRFSGSGAGTDFTLEISRVEAEDVGVYYCMQSTHFPWTFGQGTKVEIK
–	1400 nM	13.1.2 variant L99N-4.1 (antibody, V domains shown, also called Leu99Asn; 99Asn) VH: QVQLVESGGGVVQPGRSLRLSCAASGFTFSSYGMHWVRQAPGKGLEWVAVIWYDGSNKYYVDSVKGRFTISRDNSKNTLYLQMNSLRAEDTAVYYCARDGWQQLAPFDYWGQGTLVTVSS VL: not shown
